Test results reported in the supplement of paper PMC10724198.
± gives the standard deviation of the averaged measurements.

Key:
Saccharomyces cerevisiae [1] = experiment: protein stability index of tFT-peptide fusion (C-terminal peptide) (PSI (0-1 scale)); higher = more stable (slower turnover)
Experimental: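 MPS profiling in S. cerevisiae of the tFT-X12 degron library: putative degron peptides plus stable controls, 12 aa, fused to the C-terminus of a sfGFP-mCherry timer. Cells are FACS-sorted into 8 mCherry/sfGFP bins and deep-sequenced. PSI runs from 0 (unstable) to 1 (stable). Backgrounds are wild type, das1Δ and doa10Δ at 30 °C, and wild type, das1Δ, cdc34-1 and cdc53-1 at 37 °C; 2-3 technical replicates each.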

Saccharomyces cerevisiae [2] = experiment: as above; conditions: genetic background: wild type; temperature: 30 C
[3] = genetic background: cdc34-1, temperature: 37 C
[4] = genetic background: cdc53-1, temperature: 37 C
[5] = genetic background: das1 deletion, temperature: 30 C
[6] = genetic background: das1 deletion, temperature: 37 C
[7] = genetic background: doa10 deletion, temperature: 30 C
[8] = genetic background: wild type, temperature: 30 C
[9] = genetic background: wild type, temperature: 37 C
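Also: PSI is a weighted mean of sequencing reads over stability bins, variants kept only with over 10 reads, mCherry proximal and sfGFP distal, peptide attached via GGGS linker.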

Sequence | protein stability index (Saccharomyces cerevisiae [1]; [3]) | protein stability index (Saccharomyces cerevisiae [1]; [4]) | protein stability index (Saccharomyces cerevisiae [1]; [5]) | protein stability index (Saccharomyces cerevisiae [1]; [6]) | protein stability index (Saccharomyces cerevisiae [1]; [7]) | protein stability index (Saccharomyces cerevisiae [1]; [8]) | protein stability index (Saccharomyces cerevisiae [1]; [9]) | protein stability index (Saccharomyces cerevisiae [2])
AFRFHTYFLLLC | 0.0472 ± 0.006 | 0.0404 ± 0.0043 | 0.153 ± 0.04 | 0.184 ± 0.0066 | 0.0686 ± 0.021 | 0.0553 ± 0.012 | 0.0696 ± 0.038 | 0.0812 ± 0.019
AGLLVLISWRLF | 0.0795 ± 0.014 | 0.213 ± 0.036 | 0.171 ± 0.029 | 0.337 ± 0.0065 | 0.124 ± 0.013 | 0.141 ± 0.019 | 0.223 ± 0.022 | 0.217 ± 0.036
AKVFGLILVLLT | 0.211 ± 0.026 | 0.349 ± 0.027 | 0.227 ± 0.023 | 0.407 ± 0.025 | 0.201 ± 0.017 | 0.205 ± 0.024 | 0.3711 ± 0.0013 | 0.334 ± 0.022
ALEIIRLSHRLC | 0.498 ± 0.048 | 0.689 ± 0.022 | 0.618 ± 0.008 | 0.731 ± 0.009 | 0.0821 ± 0.0079 | 0.0791 ± 0.016 | 0.113 ± 0.0018 | 0.127 ± 0.011
APEWGGGDEWWG | 0.75 ± 0.04 | 0.802 ± 0.015 | 0.691 ± 0.014 | 0.804 ± 0.019 | 0.697 ± 0.015 | 0.7 ± 0.0091 | 0.7984 ± 0.0027 | 0.767 ± 0.012
APPFPSLSSFAP | 0.679 ± 0.039 | 0.744 ± 0.038 | 0.7 ± 0.016 | 0.737 ± 0.03 | 0.693 ± 0.032 | 0.706 ± 0.04 | 0.718 ± 0.026 | 0.717 ± 0.018
APPPVAPAPGSA | 0.65 ± 0.026 | 0.701 ± 0.015 | 0.653 ± 0.035 | 0.7043 ± 0.0061 | 0.647 ± 0.041 | 0.675 ± 0.053 | 0.672 ± 0.051 | 0.709 ± 0.012
APRPSYSLLALL | 0.733 ± 0.034 | 0.858 ± 0.13 | 0.711 ± 0.04 | 0.783 ± 0.026 | 0.375 ± 0.01 | 0.41 ± 0.0052 | 0.616 ± 0.043 | 0.443 ± 0.025
ASVSVWCVSVVV | 0.124 ± 0.017 | 0.166 ± 0.0023 | 0.103 ± 0.02 | 0.1641 ± 0.00088 | 0.087 ± 0.024 | 0.109 ± 0.017 | 0.148 ± 0.011 | 0.15 ± 0.026
AVLSFVLVRSVV | 0.58 ± 0.052 | 0.619 ± 0.012 | 0.417 ± 0.026 | 0.604 ± 0.017 | 0.399 ± 0.031 | 0.417 ± 0.021 | 0.574 ± 0.0062 | 0.471 ± 0.02
AWVLISNRRRIM | 0.62 ± 0.071 | 0.747 ± 0.011 | 0.648 ± 0.033 | 0.745 ± 0.025 | 0.187 ± 0.0092 | 0.216 ± 0.029 | 0.502 ± 0.095 | 0.262 ± 0.065
AYPAHQLLVSCL | 0.509 ± 0.012 | 0.511 ± 0.021 | 0.405 ± 0.026 | 0.5435 ± 0.0014 | 0.351 ± 0.016 | 0.384 ± 0.038 | 0.5 ± 0.024 | 0.482 ± 0.028
CCGWSGCVSGVL | 0.698 ± 0.029 | 0.7602 ± 0.0038 | 0.638 ± 0.014 | 0.7418 ± 0.0014 | 0.651 ± 0.012 | 0.657 ± 0.02 | 0.74 ± 0.024 | 0.717 ± 0.018
CCMLCVVAWSGV | 0.424 ± 0.044 | 0.517 ± 0.097 | 0.303 ± 0.027 | 0.5581 ± 0.0018 | 0.257 ± 0.0051 | 0.295 ± 0.056 | 0.524 ± 0.0054 | 0.359 ± 0.0042
CCSGWSVRLLCV | 0.578 ± 0.066 | 0.606 ± 0.036 | 0.494 ± 0.033 | 0.625 ± 0.025 | 0.243 ± 0.0063 | 0.269 ± 0.024 | 0.375 ± 0.0046 | 0.37 ± 0.025
CCVLGDRCIGSD | 0.699 ± 0.018 | 0.735 ± 0.011 | 0.635 ± 0.013 | 0.76 ± 0.019 | 0.631 ± 0.013 | 0.655 ± 0.022 | 0.718 ± 0.013 | 0.678 ± 0.057
CFGIFWLFARLK | 0.281 ± 0.07 | 0.32 ± 0.03 | 0.289 ± 0.022 | 0.422 ± 0.0073 | 0.343 ± 0.018 | 0.274 ± 0.035 | 0.389 ± 0.035 | 0.345 ± 0.059
CFVWFSVVLLFA | 0.109 ± 0.015 | 0.159 ± 0.0066 | 0.134 ± 0.028 | 0.227 ± 0.0053 | 0.136 ± 0.0019 | 0.117 ± 0.016 | 0.202 ± 0.014 | 0.194 ± 0.0056
CFYSRTIILEHC | 0.503 ± 0.1 | 0.506 ± 0.0072 | 0.464 ± 0.0086 | 0.5003 ± 0.0025 | 0.23 ± 0.015 | 0.233 ± 0.028 | 0.34 ± 0.015 | 0.328 ± 0.015
CGCLPYIGTKLC | 0.463 ± 0.076 | 0.711 ± 0.026 | 0.647 ± 0.028 | 0.766 ± 0.013 | 0.087 ± 0.036 | 0.117 ± 0.018 | 0.106 ± 0.012 | 0.165 ± 0.0027

Sequence | protein stability index (Saccharomyces cerevisiae [1]; [3]) | protein stability index (Saccharomyces cerevisiae [1]; [4]) | protein stability index (Saccharomyces cerevisiae [1]; [5]) | protein stability index (Saccharomyces cerevisiae [1]; [6]) | protein stability index (Saccharomyces cerevisiae [1]; [7]) | protein stability index (Saccharomyces cerevisiae [1]; [8]) | protein stability index (Saccharomyces cerevisiae [1]; [9]) | protein stability index (Saccharomyces cerevisiae [2])
CHSICLVILEFI | 0.183 ± 0.0091 | 0.338 ± 0.049 | 0.25 ± 0.05 | 0.436 ± 0.011 | 0.183 ± 0.03 | 0.198 ± 0.028 | 0.384 ± 0.011 | 0.274 ± 0.034
CIFLLMAILSLA | 0.48 ± 0.055 | 0.558 ± 0.0093 | 0.363 ± 0.029 | 0.534 ± 0.023 | 0.2341 ± 0.00064 | 0.27 ± 0.025 | 0.427 ± 0.0079 | 0.411 ± 0.075
CIIAVMISIVSF | 0.0342 ± 0.0065 | 0.0959 ± 0.012 | 0.0327 ± 0.018 | 0.14 ± 0.035 | 0.02686 ± 0.00016 | 0.0274 ± 0.0082 | 0.0917 ± 0.023 | 0.0807 ± 0.031
CILVSVDVIVFF | 0.0529 ± 0.014 | 0.147 ± 0.043 | 0.118 ± 0.051 | 0.207 ± 0.0033 | 0.103 ± 0.016 | 0.136 ± 0.026 | 0.166 ± 0.036 | 0.212 ± 0.005
CLAGALSWLRRG | 0.704 ± 0.034 | 0.7646 ± 0.006 | 0.662 ± 0.015 | 0.745 ± 0.022 | 0.637 ± 0.013 | 0.646 ± 0.019 | 0.703 ± 0.022 | 0.732 ± 0.018
CLLLFFIFLLFL | 0.484 ± 0.065 | 0.452 ± 0.0092 | 0.387 ± 0.036 | 0.463 ± 0.032 | 0.49 ± 0.026 | 0.376 ± 0.024 | 0.493 ± 0.029 | 0.41 ± 0.05
CLLLILCFLCVR | 0.382 ± 0.0078 | 0.355 ± 0.017 | 0.343 ± 0.021 | 0.4415 ± 0.00095 | 0.364 ± 0.028 | 0.321 ± 0.02 | 0.401 ± 0.016 | 0.359 ± 0.026
CLRFVFWFVCFV | 0.227 ± 0.047 | 0.238 ± 0.0095 | 0.254 ± 0.03 | 0.351 ± 0.0079 | 0.268 ± 0.0087 | 0.186 ± 0.01 | 0.231 ± 0.018 | 0.27 ± 0.087
CLYATQFWGRYG | 0.69 ± 0.062 | 0.74 ± 0.019 | 0.629 ± 0.025 | 0.7737 ± 0.005 | 0.229 ± 0.0079 | 0.258 ± 0.033 | 0.6 ± 0.014 | 0.434 ± 0.07
CPYSNAFALCVF | 0.153 ± 0.023 | 0.237 ± 0.022 | 0.22 ± 0.026 | 0.316 ± 0.0064 | 0.183 ± 0.0056 | 0.192 ± 0.019 | 0.253 ± 0.0037 | 0.272 ± 0.034
CREFLQSMLFYC | 0.688 ± 0.043 | 0.744 ± 0.017 | 0.645 ± 0.044 | 0.751 ± 0.018 | 0.241 ± 0.016 | 0.281 ± 0.021 | 0.56 ± 0.02 | 0.373 ± 0.1
CSAVYNLHLLYS | 0.696 ± 0.022 | 0.745 ± 0.012 | 0.626 ± 0.013 | 0.741 ± 0.011 | 0.469 ± 0.04 | 0.48 ± 0.022 | 0.6452 ± 0.0029 | 0.519 ± 0.076
CSFPTFRSLLLL | 0.532 ± 0.018 | 0.647 ± 0.014 | 0.502 ± 0.018 | 0.671 ± 0.014 | 0.218 ± 0.0036 | 0.23 ± 0.021 | 0.438 ± 0.058 | 0.3 ± 0.078
CSPSCNIVRLVS | 0.527 ± 0.016 | 0.723 ± 0.025 | 0.632 ± 0.02 | 0.712 ± 0.008 | 0.11 ± 0.018 | 0.114 ± 0.017 | 0.198 ± 0.059 | 0.294 ± 0.022
CTYSLSVLFVFF | 0.396 ± 0.014 | 0.51 ± 0.067 | 0.3 ± 0.03 | 0.51 ± 0.056 | 0.252 ± 0.012 | 0.307 ± 0.035 | 0.4462 ± 0.0024 | 0.382 ± 0.024
CVFFCVLVCFLS | 0.342 ± 0.0056 | 0.382 ± 0.023 | 0.302 ± 0.048 | 0.439 ± 0.006 | 0.317 ± 0.0066 | 0.3 ± 0.027 | 0.377 ± 0.0062 | 0.369 ± 0.036
CVLSWSLFVVVW | 0.0234 ± 0.0015 | 0.028 ± 0.0018 | 0.0273 ± 0.0091 | 0.0441 ± 0.011 | 0.0209 ± 0.0017 | 0.0168 ± 0.0058 | 0.0346 ± 0.015 | 0.044 ± 0.026
CVVFLWCGGCWV | 0.475 ± 0.013 | 0.584 ± 0.0059 | 0.346 ± 0.044 | 0.725 ± 0.085 | 0.344 ± 0.023 | 0.331 ± 0.03 | 0.734 ± 0.041 | 0.503 ± 0.076
CVVLCLFCWCML | 0.358 ± 0.004 | 0.4266 ± 0.0042 | 0.314 ± 0.019 | 0.451 ± 0.007 | 0.32968 ± 0.00016 | 0.305 ± 0.021 | 0.425 ± 0.0082 | 0.347 ± 0.048
